Bridge positions count the residues as written; N and C are the ends. Square brackets hold non-standard residues; d marks the D form. Primed or numbered codes have the meaning given here. Ends that are not written are not given here. * marks the point of attachment. GdDTPA‑thiourea = GdT is GdDTPA-thiourea (Gd-DTPA chelate attached through a thiourea); Phe(3,4-(OMe)2) = COc1ccc(C[C@H](N)C(=O)O)cc1OC; dBip = N[C@H](Cc1ccc(-c2ccccc2)cc1)C(=O)O; Phe(4-CN) = N#Cc1ccc(C[C@H](N)C(=O)O)cc1; Orn = NCCC[C@H](N)C(=O)O; Gd^T″ = GdDTPA-thiourea; Cbz = O=C(OCc1ccccc1)*; Dap = NC[C@H](N)C(=O)O; GdT = GdDTPA-thiourea
B1: Compound ID 878 (peptide)
peptide: {Gd^T″}-GQWHCTTRFPHAYCLYG
modifications: disulfide 5-14 (inferred)
B2: Compound ID 939 (peptide)
peptide: Cbz-GQWHCT[Dap](GdDTPA‑thiourea)RFPHHYCLYG
modifications: disulfide 5-14 (inferred); also: gadolinium complex (GdDTPA)
B3: SEQ ID NO 163 (peptide)
peptide: [dY][dH][dA][dC][dY][dQ][dA]G[dC][dW][dI][dW]
modifications: disulfide 4-9 (inferred); not fully specified (C-terminus)
B4: SEQ ID NO 176 (peptide)
peptide: QWTCSGDEYTWHC[dN]YE
modifications: disulfide 4-13 (inferred); not fully specified (N-terminus); printed as QWTCSGDEYTWHCnYE
B5: SEQ ID NO 165 (peptide)
peptide: Q[dW]TCSGDEYTWHCNYE
modifications: disulfide 4-13 (inferred); not fully specified (N-terminus, C-terminus); printed as QwTCSGDEYTWHCNYE
B6: Compound ID 883 (peptide)
peptide: {Gd^T″}-GQWHCTTD[Phe(4-CN)]PHHYCLYG
modifications: disulfide 5-14 (inferred)
B7: Compound ID 893 (peptide)
peptide: {Gd^T″}-GQWHCTTD[Phe(3,4-(OMe)2)]PHHYCLYG
modifications: disulfide 5-14 (inferred)
B8: SEQ ID NO 175 (peptide)
peptide: QWTCSGDEYTWH[dC]NYE
modifications: disulfide 4-13 (inferred); not fully specified (N-terminus); printed as QWTCSGDEYTWHcNYE
B9: SEQ ID NO 166 (peptide)
peptide: QW[dT]CSGDEYTWHCNYE
modifications: disulfide 4-13 (inferred); not fully specified (N-terminus, C-terminus); printed as QWtCSGDEYTWHCNYE
B10: Compound ID 901 (peptide)
peptide: {Gd^T″}-GQWHCTTRFPHH[dF]CLYG
modifications: disulfide 5-14 (inferred); not fully specified (C-terminus)
B11: Compound ID 907 (peptide)
peptide: {Gd^T″}-GQWHCTTLFPHH[dY]CLYG
modifications: disulfide 5-14 (inferred); not fully specified (C-terminus)
B12: Compound ID 941 (peptide)
peptide: Cbz-GQWHCT[Orn](GdDTPA‑thiourea)RFPHHYCLYG
modifications: disulfide 5-14 (inferred); also: gadolinium complex (GdDTPA)
B13: Compound ID 903 (peptide)
peptide: GdT-GQWHCTTRFPHH[dBip]CLYG
modifications: disulfide 5-14 (inferred); not fully specified (C-terminus); also: gadolinium complex (GdDTPA)
B14: SEQ ID NO 168 (peptide)
peptide: QWTC[dS]GDEYTWHCNYE
modifications: disulfide 4-13 (inferred); not fully specified (N-terminus); printed as QWTCsGDEYTWHCNYE
B15: SEQ ID NO 173 (peptide)
peptide: QWTCSGDEYT[dW]HCNYE
modifications: disulfide 4-13 (inferred); not fully specified (N-terminus); printed as QWTCSGDEYTwHCNYE

Target: rat collagen, acid soluble, type I, rat tail (Upstate 08-115) (rat) (UniProt P02454)
Sequence (P02454 152-1207, chain 1 of 2): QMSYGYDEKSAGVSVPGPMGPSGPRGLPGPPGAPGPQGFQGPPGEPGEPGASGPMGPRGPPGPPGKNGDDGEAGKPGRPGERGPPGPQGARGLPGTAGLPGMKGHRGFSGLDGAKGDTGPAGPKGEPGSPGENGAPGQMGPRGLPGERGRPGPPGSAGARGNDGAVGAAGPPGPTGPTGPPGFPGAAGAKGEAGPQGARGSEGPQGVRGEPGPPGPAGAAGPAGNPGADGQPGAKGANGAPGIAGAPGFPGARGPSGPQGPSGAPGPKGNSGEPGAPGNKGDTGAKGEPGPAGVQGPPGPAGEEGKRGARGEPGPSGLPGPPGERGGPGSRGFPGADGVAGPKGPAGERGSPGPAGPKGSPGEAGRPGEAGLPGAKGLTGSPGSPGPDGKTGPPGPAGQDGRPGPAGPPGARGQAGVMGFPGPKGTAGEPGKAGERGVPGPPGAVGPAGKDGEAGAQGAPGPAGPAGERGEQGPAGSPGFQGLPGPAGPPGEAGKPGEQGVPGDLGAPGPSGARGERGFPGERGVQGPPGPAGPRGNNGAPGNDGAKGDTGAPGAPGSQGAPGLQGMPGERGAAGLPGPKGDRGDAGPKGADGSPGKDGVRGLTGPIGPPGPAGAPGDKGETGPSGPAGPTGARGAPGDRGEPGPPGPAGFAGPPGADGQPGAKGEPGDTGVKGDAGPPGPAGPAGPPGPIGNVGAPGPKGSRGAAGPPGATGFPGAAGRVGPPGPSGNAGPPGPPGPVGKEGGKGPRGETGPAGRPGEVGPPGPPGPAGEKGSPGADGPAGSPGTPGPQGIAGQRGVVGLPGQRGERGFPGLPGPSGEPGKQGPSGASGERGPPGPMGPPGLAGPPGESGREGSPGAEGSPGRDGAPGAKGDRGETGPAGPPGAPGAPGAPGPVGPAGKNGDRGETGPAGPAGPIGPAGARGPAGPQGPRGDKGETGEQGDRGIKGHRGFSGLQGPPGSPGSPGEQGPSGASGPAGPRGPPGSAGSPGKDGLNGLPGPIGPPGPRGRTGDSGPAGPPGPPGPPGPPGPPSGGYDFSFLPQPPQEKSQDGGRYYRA
Sequence (P02466 86-1125, chain 2 of 2, further chain): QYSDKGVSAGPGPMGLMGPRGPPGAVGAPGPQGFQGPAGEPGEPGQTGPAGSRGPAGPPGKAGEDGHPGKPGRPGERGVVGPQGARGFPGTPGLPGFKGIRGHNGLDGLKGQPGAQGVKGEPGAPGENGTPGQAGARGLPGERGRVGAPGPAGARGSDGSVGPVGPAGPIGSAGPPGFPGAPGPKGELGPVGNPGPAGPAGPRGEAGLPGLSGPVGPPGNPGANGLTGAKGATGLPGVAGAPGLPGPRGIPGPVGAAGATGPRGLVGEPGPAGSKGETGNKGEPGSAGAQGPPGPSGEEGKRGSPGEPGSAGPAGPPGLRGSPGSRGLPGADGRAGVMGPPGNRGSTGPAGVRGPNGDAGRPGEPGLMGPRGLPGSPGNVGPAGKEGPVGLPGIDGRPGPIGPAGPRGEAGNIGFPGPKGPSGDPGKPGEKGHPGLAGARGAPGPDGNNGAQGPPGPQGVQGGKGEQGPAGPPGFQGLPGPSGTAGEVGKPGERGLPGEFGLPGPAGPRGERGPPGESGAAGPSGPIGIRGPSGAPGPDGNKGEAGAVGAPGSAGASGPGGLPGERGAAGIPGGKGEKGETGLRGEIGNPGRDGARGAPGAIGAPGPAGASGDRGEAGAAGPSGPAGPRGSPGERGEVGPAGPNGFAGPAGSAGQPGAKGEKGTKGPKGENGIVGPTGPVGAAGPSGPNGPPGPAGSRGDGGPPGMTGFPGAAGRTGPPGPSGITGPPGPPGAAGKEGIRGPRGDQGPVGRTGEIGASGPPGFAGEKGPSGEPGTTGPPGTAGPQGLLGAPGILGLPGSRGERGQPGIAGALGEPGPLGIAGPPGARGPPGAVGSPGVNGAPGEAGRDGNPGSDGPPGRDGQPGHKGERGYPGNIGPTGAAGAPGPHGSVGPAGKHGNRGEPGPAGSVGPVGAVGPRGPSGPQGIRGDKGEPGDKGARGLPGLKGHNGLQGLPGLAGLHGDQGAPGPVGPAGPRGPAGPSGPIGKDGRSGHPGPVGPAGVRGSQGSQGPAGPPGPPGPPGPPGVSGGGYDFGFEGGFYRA
Assay: dried collagen assay

Row | % bound [%] | Binder
1 | 9 | B1
2 | 5 | B2
3 | 53 | B3
4 | 2 | B4
5 | 4 | B5
6 | 2 | B6
7 | 2 | B7
8 | 2 | B8
9 | 3 | B9
10 | 2 | B10
11 | 1 | B11
12 | 5 | B12
13 | 5 | B13
14 | 2 | B14
15 | 4 | B15

Target: human collagen type I, acid soluble, extracted from placenta (Sigma C7774) (human) (UniProt P02452)
Sequence (P02452 162-1218 limits assumed, chain 1 of 2): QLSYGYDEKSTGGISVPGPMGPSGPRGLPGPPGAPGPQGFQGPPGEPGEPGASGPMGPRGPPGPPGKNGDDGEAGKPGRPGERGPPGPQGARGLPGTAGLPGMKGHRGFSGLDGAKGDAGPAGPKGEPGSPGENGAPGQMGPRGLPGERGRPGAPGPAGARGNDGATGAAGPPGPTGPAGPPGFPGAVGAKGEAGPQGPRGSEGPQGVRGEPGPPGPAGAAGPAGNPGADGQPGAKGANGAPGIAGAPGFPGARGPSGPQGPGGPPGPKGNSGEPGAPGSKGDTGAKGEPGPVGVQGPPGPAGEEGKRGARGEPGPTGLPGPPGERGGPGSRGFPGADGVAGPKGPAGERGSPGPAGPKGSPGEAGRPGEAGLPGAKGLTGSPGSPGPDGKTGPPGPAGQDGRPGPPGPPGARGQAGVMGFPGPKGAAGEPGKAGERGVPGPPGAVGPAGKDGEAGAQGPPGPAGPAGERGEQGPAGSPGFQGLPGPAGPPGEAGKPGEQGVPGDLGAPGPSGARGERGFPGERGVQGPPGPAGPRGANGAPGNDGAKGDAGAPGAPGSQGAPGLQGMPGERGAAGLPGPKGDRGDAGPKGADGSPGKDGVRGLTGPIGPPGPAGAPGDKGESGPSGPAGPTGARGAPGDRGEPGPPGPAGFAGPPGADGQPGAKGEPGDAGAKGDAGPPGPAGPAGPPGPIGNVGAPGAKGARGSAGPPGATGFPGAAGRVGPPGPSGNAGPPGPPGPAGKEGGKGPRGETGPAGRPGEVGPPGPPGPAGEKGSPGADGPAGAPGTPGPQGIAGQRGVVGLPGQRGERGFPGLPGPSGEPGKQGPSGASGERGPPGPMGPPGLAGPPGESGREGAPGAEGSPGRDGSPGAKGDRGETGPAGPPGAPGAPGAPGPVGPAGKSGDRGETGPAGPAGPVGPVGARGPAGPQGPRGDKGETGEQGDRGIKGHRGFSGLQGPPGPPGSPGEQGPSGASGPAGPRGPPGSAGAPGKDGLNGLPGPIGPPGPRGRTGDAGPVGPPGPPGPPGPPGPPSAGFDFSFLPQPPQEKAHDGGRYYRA
Sequence (P08123 80-1119 limits assumed, chain 2 of 2, further chain): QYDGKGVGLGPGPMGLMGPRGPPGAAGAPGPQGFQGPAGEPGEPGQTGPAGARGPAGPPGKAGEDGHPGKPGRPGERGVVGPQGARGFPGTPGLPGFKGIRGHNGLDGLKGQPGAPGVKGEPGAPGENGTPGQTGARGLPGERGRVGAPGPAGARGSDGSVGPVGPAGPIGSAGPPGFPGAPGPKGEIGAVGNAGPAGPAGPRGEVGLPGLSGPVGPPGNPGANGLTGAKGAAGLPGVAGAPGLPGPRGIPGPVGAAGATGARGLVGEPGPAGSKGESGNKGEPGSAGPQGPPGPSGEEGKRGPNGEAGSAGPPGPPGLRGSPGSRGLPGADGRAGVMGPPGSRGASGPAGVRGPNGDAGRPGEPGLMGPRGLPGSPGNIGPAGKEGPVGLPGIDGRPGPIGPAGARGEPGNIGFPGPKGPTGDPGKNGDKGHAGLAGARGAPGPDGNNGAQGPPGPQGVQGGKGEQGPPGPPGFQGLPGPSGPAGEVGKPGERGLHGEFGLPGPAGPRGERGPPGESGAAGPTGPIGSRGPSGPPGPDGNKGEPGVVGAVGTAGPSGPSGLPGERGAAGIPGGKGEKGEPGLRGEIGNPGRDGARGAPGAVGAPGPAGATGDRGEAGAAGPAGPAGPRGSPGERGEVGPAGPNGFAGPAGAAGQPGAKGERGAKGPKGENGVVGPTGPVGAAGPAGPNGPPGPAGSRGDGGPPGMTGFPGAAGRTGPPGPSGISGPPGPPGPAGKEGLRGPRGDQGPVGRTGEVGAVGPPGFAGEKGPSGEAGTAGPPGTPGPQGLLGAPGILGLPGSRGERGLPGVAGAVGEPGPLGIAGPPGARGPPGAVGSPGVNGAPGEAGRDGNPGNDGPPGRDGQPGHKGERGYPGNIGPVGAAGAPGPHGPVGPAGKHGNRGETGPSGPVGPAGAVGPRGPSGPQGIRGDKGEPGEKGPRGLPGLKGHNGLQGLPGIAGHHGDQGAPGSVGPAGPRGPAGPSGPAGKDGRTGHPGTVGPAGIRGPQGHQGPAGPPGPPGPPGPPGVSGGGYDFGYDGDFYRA
Assay: dried collagen assay

Row | % bound [%] | Binder
16 | 8 | B1
17 | 4 | B2
18 | 37 | B3
19 | 2 | B4
20 | 2 | B5
21 | 8 | B6
22 | 4 | B7
23 | 2 | B8
24 | 2 | B9
25 | 2 | B10
26 | 6 | B11
27 | 8 | B12
28 | 3 | B13
29 | 3 | B14
30 | 5 | B15

— patent US20080044360A1
